Reference: paper PMC6171530 (Nature chemical biology, 2018)

B1: His6-RNR-α (enzyme, human, UniProt P23921 1-792, looked up)
chain: MHVIKRDGRQERVMFDKITSRIQKLCYGLNMDFVDPAQITMKVIQGLYSGVTTVELDTLAAETAATLTTKHPDYAILAARIAVSNLHKETKKVFSDVMEDLYNYINPHNGKHSPMVAKSTLDIVLANKDRLNSAIIYDRDFSYNYFGFKTLERSYLLKINGKVAERPQHMLMRVSVGIHKEDIDAAIETYNLLSERWFTHASPTLFNAGTNRPQLSSCFLLSMKDDSIEGIYDTLKQCALISKSAGGIGVAVSCIRATGSYIAGTNGNSNGLVPMLRVYNNTARYVDQGGNKRPGAFAIYLEPWHLDIFEFLDLKKNTGKEEQRARDLFFALWIPDLFMKRVETNQDWSLMCPNECPGLDEVWGEEFEKLYASYEKQGRVRKVVKAQQLWYAIIESQTETGTPYMLYKDSCNRKSNQQNLGTIKCSNLCTEIVEYTSKDEVAVCNLASLALNMYVTSEHTYDFKKLAEVTKVVVRNLNKIIDINYYPVPEACLSNKRHRPIGIGVQGLADAFILMRYPFESAEAQLLNKQIFETIYYGALEASCDLAKEQGPYETYEGSPVSKGILQYDMWNVTPTDLWDWKVLKEKIAKYGIRNSLLIAPMPTASTAQILGNNESIEPYTSNIYTRRVLSGEFQIVNPHLLKDLTERGLWHEEMKNQIIACNGSIQSIPEIPDDLKQLYKTVWEISQKTVLKMAAERGAFIDQSQSLNIHIAEPNYGKLTSMHFYGWKQGLKTGMYYLRTRPAANPIQFTLNKEKLKDKEKVSKEEEEKERNTAAMVCSLENRDECLMCGS

What was measured:
[1] = molecular target: the molecule itself; experiment: negative-stain electron microscopy
[2] = molecular target: B1; experiment: pull-down

| binding result [2] | Binder | stoichiometry N [1] |
| --- | --- | --- |
|  | B1 | 6 |
| binds | His6-HA-HNH&APIM (domain or fragment, UniProt Q5FWF4 929-1079, looked up) NSWDSRFCSLKCQEEFWIRSNNSYLRAKVFETEHGVCQLCNVNAQELFLRLRDAPKSQRKNLLYATWTSKLPLEQLNEMIRNPGEGHFWQVDHIKPVYGGGGQCSLDNLQTLCTVCHKERTARQAKERSQVRRQSLASKHGSDITRFLVKK |  |
